# Measured values: patent publication US20240124881
# Molecular target: T1, DHX36 (Mus musculus) (UniProt Q8VHK9)
# T1 sequence: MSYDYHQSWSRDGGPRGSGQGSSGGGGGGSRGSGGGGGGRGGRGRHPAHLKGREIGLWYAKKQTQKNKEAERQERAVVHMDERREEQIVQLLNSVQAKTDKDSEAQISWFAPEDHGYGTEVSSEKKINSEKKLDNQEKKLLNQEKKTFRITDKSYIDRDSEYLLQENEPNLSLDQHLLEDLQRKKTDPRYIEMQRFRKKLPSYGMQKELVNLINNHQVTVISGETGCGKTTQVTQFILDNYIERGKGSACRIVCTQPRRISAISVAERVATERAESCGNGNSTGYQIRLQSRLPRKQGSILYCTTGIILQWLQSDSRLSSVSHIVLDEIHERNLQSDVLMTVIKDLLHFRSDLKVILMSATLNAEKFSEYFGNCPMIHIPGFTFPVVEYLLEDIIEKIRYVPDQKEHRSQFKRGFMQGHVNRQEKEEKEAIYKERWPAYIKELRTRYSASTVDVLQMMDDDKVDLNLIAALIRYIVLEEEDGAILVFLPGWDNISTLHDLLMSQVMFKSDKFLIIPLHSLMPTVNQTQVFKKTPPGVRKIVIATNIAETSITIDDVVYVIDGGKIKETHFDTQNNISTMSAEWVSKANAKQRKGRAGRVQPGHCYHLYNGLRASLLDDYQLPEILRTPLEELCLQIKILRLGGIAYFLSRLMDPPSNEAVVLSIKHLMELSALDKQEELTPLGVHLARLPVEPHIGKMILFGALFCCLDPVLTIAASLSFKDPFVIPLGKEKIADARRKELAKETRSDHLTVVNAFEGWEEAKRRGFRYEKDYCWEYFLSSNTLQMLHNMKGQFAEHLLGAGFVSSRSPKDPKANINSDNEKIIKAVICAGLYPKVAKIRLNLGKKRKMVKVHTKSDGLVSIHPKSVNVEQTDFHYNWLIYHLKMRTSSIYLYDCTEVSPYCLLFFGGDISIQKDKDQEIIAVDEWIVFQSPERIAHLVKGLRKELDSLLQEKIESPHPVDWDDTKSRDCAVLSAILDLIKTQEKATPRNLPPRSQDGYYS
# Test: pulldown
# Conditions: N2a lysate, mass spectrometry; threshold criterion
substance,measurement,value
Chaserr Exon5-MC,binding signal (fold lower recovery than WT),> 2
